In patent publication US20190071517A1 (KANAGAWA PREFECTURAL HOSPITAL ORGANIZATION, published 2019):

Columns and labels:
HEG1 1kb = biological target: T1, HEG1 1kb (human, UniProt Q9ULI3 986-1381); assay: Western blot of cell lysate
T1 construct: Inserted into pFLAG-CMV1, expressed in ACC-MESO-1; also called fragment 1kb
T1 sequence: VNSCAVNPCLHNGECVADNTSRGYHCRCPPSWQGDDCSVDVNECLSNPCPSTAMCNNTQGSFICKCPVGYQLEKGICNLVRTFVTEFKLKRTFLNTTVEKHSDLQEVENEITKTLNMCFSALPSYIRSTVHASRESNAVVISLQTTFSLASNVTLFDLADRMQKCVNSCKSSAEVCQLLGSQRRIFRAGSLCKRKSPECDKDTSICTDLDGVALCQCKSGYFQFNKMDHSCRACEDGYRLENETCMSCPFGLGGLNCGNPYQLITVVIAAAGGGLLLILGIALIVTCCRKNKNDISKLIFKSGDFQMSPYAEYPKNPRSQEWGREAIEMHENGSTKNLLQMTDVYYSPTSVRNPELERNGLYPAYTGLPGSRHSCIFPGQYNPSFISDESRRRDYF
Experimental: Gene transfer was performed with HEG1 siRNA (H9106) (SEQ ID NOs: 40, 41) and human HEG1 for the mesothelioma cell line ACC-MESO-1, and the reactivity of the SKM9-2 was examined through Western blot analysis. A full length protein (HEG1 full length) or a fragment (HEG1 3kb, HEG1 2kb, or HEG1 1kb) of the human HEG1 was used. The full length human HEG1 protein, a protein having the amino acid sequence set forth in SEQ ID NO: 35, was obtained through inserting a base sequence set forth in SEQ ID NO: 34 into pFLAG-CMV1 (Sigma-Aldrich Japan K.K.) to obtain a plasmid, transforming the plasmid, and allowing the mesothelioma cell line to express the plasmid. Fragment HEG1 3kb was obtained through inserting a fragment corresponding to a sequence from position 285, leucine, to position 1387, phenylalanine, of SEQ ID NO: 35 into pFLAG-CMV1 (Sigma-Aldrich Japan K.K.) in an in-frame manner, and allowing the mesothelioma cell line to express the resultant. […] Each cell lysate was analyzed through Western blot with the SKM9-2 antibody.

[1] = biological target: T2, HEG1 full length (full length human HEG1 protein expressed in ACC-MESO-1) (human, UniProt Q9ULI3 30-1381, limits assumed); assay: Western blot of ACC-MESO-1 cell lysate
T2 construct: Full length; expressed from pFLAG-CMV1 in ACC-MESO-1 with the endogenous HEG1 knocked down; cell lysate in Western blot; What the vector adds is not described; also called full length protein
T2 sequence: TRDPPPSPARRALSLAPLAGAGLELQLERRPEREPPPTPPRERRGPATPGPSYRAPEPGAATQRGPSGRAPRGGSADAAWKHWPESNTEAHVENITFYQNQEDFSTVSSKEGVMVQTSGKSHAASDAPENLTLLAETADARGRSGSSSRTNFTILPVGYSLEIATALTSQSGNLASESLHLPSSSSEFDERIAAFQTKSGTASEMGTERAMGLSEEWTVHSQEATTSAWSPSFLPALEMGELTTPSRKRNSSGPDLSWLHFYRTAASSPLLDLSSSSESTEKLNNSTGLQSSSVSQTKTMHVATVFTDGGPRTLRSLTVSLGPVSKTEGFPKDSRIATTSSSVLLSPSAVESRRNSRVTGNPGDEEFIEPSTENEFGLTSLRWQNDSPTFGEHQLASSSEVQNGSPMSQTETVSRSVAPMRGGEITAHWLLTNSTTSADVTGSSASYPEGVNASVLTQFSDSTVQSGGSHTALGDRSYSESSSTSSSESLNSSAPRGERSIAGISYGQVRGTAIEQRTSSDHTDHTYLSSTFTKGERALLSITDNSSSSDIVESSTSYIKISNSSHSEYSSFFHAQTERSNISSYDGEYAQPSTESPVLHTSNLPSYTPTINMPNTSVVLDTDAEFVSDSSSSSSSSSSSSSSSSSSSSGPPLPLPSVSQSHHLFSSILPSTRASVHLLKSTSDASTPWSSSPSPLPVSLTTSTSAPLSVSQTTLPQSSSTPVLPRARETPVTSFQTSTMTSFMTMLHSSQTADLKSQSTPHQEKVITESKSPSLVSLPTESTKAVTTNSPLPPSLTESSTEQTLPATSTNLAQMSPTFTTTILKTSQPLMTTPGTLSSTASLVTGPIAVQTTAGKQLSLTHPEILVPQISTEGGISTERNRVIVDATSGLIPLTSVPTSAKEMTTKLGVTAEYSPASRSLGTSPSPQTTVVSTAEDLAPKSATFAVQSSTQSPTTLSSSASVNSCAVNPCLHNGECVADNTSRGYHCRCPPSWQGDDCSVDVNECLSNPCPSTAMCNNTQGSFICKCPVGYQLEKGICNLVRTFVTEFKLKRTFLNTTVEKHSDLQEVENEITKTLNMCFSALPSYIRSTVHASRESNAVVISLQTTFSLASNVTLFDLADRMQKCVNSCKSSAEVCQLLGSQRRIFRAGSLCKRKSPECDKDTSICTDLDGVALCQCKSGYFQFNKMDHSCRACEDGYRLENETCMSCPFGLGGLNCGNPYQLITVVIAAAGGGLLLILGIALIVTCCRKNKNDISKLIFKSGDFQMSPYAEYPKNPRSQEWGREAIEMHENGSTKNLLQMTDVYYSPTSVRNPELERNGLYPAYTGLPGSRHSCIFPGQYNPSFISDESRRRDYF
Experimental: (§1) Gene transfer was performed with HEG1 siRNA (H9106) (SEQ ID NOs: 40, 41) and human HEG1 for the mesothelioma cell line ACC-MESO-1, and the reactivity of the SKM9-2 was examined through Western blot analysis. A full length protein (HEG1 full length) or a fragment (HEG1 3kb, HEG1 2kb, or HEG1 1kb) of the human HEG1 was used. The full length human HEG1 protein, a protein having the amino acid sequence set forth in SEQ ID NO: 35, was obtained through inserting a base sequence set forth in SEQ ID NO: 34 into pFLAG-CMV1 (Sigma-Aldrich Japan K.K.) to obtain a plasmid, transforming the plasmid, and allowing the mesothelioma cell line to express the plasmid. Fragment HEG1 3kb was obtained through inserting a fragment corresponding to a sequence from position 285, leucine, to position 1387, phenylalanine, of SEQ ID NO: 35 into pFLAG-CMV1 (Sigma-Aldrich Japan K.K.) in an in-frame manner, and allowing the mesothelioma cell line to express the resultant. HEG1 2kb and HEG1 1kb were obtained through allowing the mesothelioma cell line to express products similarly obtained from a fragment corresponding to a sequence from position 677, leucine, to position 1387, phenylalanine, of SEQ ID NO: 35 and a fragment corresponding to a sequence from position 992, valine, to position 1387, phenylalanine, of SEQ ID NO: 35, respectively. Each cell lysate was analyzed through Western blot with the SKM9-2 antibody.

HEG1 3kb = biological target: T3, HEG1 3kb (human, UniProt Q9ULI3 285-1381); assay: Western blot of ACC-MESO-1 cell lysate
T3 construct: Inserted in frame into pFLAG-CMV1, expressed in ACC-MESO-1; what the vector adds is not described; also called fragment 3kb
T3 sequence: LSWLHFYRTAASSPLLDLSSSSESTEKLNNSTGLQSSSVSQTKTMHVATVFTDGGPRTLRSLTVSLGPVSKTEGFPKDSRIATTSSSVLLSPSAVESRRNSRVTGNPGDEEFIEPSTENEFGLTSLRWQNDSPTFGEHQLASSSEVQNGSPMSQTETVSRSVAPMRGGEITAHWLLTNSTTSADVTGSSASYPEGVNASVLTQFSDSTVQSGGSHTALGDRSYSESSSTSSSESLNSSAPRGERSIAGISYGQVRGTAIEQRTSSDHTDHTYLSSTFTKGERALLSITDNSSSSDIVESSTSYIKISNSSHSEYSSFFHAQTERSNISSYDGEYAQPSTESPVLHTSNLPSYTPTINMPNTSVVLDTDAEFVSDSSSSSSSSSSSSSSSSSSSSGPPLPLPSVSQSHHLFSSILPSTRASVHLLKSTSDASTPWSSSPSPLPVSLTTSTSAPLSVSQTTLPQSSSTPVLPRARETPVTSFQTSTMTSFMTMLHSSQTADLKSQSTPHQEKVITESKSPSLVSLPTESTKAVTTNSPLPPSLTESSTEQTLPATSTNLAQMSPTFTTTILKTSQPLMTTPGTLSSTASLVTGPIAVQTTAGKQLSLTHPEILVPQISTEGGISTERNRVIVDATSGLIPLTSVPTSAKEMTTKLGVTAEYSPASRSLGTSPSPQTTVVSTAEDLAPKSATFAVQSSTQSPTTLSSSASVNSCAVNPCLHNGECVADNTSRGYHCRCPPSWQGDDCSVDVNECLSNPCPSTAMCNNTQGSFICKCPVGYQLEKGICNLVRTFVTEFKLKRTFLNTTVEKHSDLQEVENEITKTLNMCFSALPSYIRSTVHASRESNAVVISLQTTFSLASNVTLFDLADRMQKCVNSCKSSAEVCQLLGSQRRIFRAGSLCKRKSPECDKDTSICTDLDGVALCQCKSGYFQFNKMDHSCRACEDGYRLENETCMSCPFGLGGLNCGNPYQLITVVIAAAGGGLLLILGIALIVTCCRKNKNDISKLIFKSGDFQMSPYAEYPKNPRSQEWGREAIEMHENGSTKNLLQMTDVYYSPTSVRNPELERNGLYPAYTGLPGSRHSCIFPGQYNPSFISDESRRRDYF
Experimental: as §1

HEG1 2kb = biological target: T4, HEG1 2kb (human, UniProt Q9ULI3 671-1381); assay: Western blot of ACC-MESO-1 cell lysate
T4 construct: Inserted into pFLAG-CMV1, expressed in ACC-MESO-1; also called fragment 2kb
T4 sequence: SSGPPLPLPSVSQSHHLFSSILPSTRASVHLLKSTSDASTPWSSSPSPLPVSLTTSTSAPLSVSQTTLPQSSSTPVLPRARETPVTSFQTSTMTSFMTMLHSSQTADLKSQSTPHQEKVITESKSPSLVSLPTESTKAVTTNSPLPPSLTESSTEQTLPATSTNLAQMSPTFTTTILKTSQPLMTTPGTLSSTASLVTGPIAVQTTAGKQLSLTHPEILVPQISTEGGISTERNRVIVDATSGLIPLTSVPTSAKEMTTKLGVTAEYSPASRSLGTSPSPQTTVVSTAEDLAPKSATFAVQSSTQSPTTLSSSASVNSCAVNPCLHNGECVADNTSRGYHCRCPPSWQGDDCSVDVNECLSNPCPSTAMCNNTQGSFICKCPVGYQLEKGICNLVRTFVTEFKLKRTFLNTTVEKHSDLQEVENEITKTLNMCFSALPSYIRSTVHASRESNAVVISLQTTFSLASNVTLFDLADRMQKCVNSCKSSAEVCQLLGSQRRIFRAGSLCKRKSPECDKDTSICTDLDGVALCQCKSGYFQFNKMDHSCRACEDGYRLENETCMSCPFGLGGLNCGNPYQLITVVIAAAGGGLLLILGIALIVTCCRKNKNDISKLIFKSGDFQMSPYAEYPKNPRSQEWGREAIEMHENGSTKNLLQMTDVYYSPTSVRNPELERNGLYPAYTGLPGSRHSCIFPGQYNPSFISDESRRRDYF
Experimental: as §1

B1: SKM9-2 antibody (antibody, mouse IgG1, kappa, V domains shown)
VH: QVQLQQPGAELVRPGASVKLSCKASGFSFTTYWITWVKQRPGQGLEWIGMIHPSDSETRLSQTFKDKATLTVDKSSNTAYMQFSSPTSEDSAVYYCVRDFDVWGAGTTVTVSS
VL: DVLMTQTPLSLPVSLGDQASISCRSSQNIVHNNGNTYLGWYLQKPGQSPKLLIFKVSNRFSGVPDRFSGSGSGTDFTLKISRVEAEDLGVYYCFQGSHIPRTFGGGTRLEIKR
notes: also called monoclonal antibody produced from the SKM9-2 hybridoma
binding result (HEG1 1kb): no binding | binding result [1]: binds | binding result (HEG1 3kb): binds | binding result (HEG1 2kb): binds
